Common to all, as to experiment: cell-based or functional assay
Experiment [1] concerns the target T1, CD30 on CD30-expressing tumor cell lines (HH, MJ, H9) (UniProt P28908 19-595).
T1 sequence (looked up): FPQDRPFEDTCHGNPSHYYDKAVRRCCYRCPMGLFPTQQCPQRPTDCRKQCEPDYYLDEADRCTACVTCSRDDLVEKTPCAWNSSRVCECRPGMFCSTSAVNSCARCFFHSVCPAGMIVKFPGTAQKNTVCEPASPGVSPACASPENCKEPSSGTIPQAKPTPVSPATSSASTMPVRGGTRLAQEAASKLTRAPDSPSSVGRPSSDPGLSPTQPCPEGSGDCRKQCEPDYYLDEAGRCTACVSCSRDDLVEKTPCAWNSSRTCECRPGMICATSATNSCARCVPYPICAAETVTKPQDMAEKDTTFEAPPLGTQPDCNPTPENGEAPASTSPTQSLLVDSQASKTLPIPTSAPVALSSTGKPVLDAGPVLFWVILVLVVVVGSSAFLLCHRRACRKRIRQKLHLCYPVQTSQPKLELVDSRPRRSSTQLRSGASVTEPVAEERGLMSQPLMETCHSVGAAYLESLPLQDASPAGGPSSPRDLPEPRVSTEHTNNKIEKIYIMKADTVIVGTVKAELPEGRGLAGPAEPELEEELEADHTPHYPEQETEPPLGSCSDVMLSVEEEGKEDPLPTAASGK

The target of experiment [2] is T1, CD30 on CD30-expressing tumor cell …. This is another data set of the same source.
Experiment [3] shares this target. The source holds these as a separate data set.
Experiment [4] has the same target. The source holds these as a separate data set.
For experiment [5] the target is unchanged. The source holds these as a separate data set.

Where two headings read alike, the source gives them in different places.

B1: AS53445bbz CAR (other)
chain: QVQLVESGGGSVQAGGSLRLSCTASGYIFCMGWFRQAPGKAREGIATIYTGGDSTYYDDSVKGRFTISRDNAKNTVYLQMNSLKPEDTAMYYCAAGGQECYLTNWVSYWGQGTQVTVSSTTTPAPRPPTPAPTIASQPLSLRPEACRPAAGGAVHTRGLDFACDIYIWAPLAGTCGVLLLSLVITLYCKRGRKKLLYIFKQPFMRPVQTTQEEDGCSCRFPEEEEGGCELRVKFSRSADAPAYKQGQNQLYNELNLGRREEYDVLDKRRGRDPEMGGKPRRKNPQEGLYNELQKDKMAEAYSEIGMKGERRRGKGHDGLYQGLSTATKDTYDALHMQALPPR
Consider B1, for which the “% MJ cell lysis E:T = 0.5:1 (LDH assay, CAR T cells)” value in experiment [1] was determined as 24.6%.

B2: AS48433bbz CAR (other)
chain: QIQLVESGGGSVQAGETLRLSCTASGSTFGDSDMGWYRQAPGNACELVSIISSDGRTYYVDSVKGRFTISQDNAVSTVYLQMNSLNPEDTGVYYCAADLRLNCRDGRCCGYWGQGTQVTVSSTTTPAPRPPTPAPTIASQPLSLRPEACRPAAGGAVHTRGLDFACDIYIWAPLAGTCGVLLLSLVITLYCKRGRKKLLYIFKQPFMRPVQTTQEEDGCSCRFPEEEEGGCELRVKFSRSADAPAYKQGQNQLYNELNLGRREEYDVLDKRRGRDPEMGGKPRRKNPQEGLYNELQKDKMAEAYSEIGMKGERRRGKGHDGLYQGLSTATKDTYDALHMQALPPR
On to B2, for which the “% MJ cell lysis E:T = 0.5:1 (LDH assay, CAR T cells)” value in experiment [1] was 50.5%.

B3: AS53574-AS48542bil-bbz CAR (other)
chain: QVKLVESGGGSVQAGGSLRLSCAASGYIYSSNCMGWFRQAPGKEREWVARIHTGSGSTYYADSVKGRFTISQDNAKNTVYLQMNSLRPEDTAMYDCAAGRVVLGAVVCTNEYWGQGTQVTVSSGGGGSGGGGSGGGGSQMQLVESGGGSVQAGETLRLSCTTSAFTFDGPDMAWYRQAPGNECVLVSIISADGRTYYADSVKGRFTISRDNAKNTVFLNLNSLQPEDTAVYYCALDPRKNCRGGYCCANWGPGTQVTVSSTTTPAPRPPTPAPTIASQPLSLRPEACRPAAGGAVHTRGLDFACDIYIWAPLAGTCGVLLLSLVITLYCKRGRKKLLYIFKQPFMRPVQTTQEEDGCSCRFPEEEEGGCELRVKFSRSADAPAYKQGQNQLYNELNLGRREEYDVLDKRRGRDPEMGGKPRRKNPQEGLYNELQKDKMAEAYSEIGMKGERRRGKGHDGLYQGLSTATKDTYDALHMQALPPR
With B3, in experiment [2], the “% H9 cell lysis E:T = 5:1 (LDH assay, CAR T cells)” value amounted to 54% and the “% MJ cell lysis E:T = 1:1 (LDH assay, CAR T cells)” value was 60.5%.

B4: AS48542dis-bbz CAR (other)
chain: QMQLVESGGGSVQAGETLRLSCTTSAFTFDGPDMAWYRQAPGNECVLVSIISADGRTYYADSVKGRFTISRDNAKNTVFLNLNSLQPEDTAVYYCALDPRKNCRGGYCCANWGPGTQVTVSSGGGGSQMQLVESGGGSVQAGETLRLSCTTSAFTFDGPDMAWYRQAPGNECVLVSIISADGRTYYADSVKGRFTISRDNAKNTVFLNLNSLQPEDTAVYYCALDPRKNCRGGYCCANWGPGTQVTVSSTTTPAPRPPTPAPTIASQPLSLRPEACRPAAGGAVHTRGLDFACDIYIWAPLAGTCGVLLLSLVITLYCKRGRKKLLYIFKQPFMRPVQTTQEEDGCSCRFPEEEEGGCELRVKFSRSADAPAYKQGQNQLYNELNLGRREEYDVLDKRRGRDPEMGGKPRRKNPQEGLYNELQKDKMAEAYSEIGMKGERRRGKGHDGLYQGLSTATKDTYDALHMQALPPR
For the molecule B4, in experiment [2], the “% H9 cell lysis E:T = 5:1 (LDH assay, CAR T cells)” value was 81% and the “% MJ cell lysis E:T = 1:1 (LDH assay, CAR T cells)” value stood at 56.4%.

B5: AS48481bbz CAR (other)
chain: EVQLVASGGGSVQAGETLRLSCTASGFTFADSAMGWYRKGPGNVCDLVAIIRTDGTTYYGDSAKGRFTISRDNAKSTLYLQMNSLKPEDTAVYFCAADRETSFIGGSWCVAKYWDQGTQVTVSSTTTPAPRPPTPAPTIASQPLSLRPEACRPAAGGAVHTRGLDFACDIYIWAPLAGTCGVLLLSLVITLYCKRGRKKLLYIFKQPFMRPVQTTQEEDGCSCRFPEEEEGGCELRVKFSRSADAPAYKQGQNQLYNELNLGRREEYDVLDKRRGRDPEMGGKPRRKNPQEGLYNELQKDKMAEAYSEIGMKGERRRGKGHDGLYQGLSTATKDTYDALHMQALPPR
Consider B5, for which, in experiment [1], the “% MJ cell lysis E:T = 0.5:1 (LDH assay, CAR T cells)” value was 45.1%.

B6: AS48542dil-bbz CAR (other)
chain: QMQLVESGGGSVQAGETLRLSCTTSAFTFDGPDMAWYRQAPGNECVLVSIISADGRTYYADSVKGRFTISRDNAKNTVFLNLNSLQPEDTAVYYCALDPRKNCRGGYCCANWGPGTQVTVSSGGGGSGGGGSGGGGSQMQLVESGGGSVQAGETLRLSCTTSAFTFDGPDMAWYRQAPGNECVLVSIISADGRTYYADSVKGRFTISRDNAKNTVFLNLNSLQPEDTAVYYCALDPRKNCRGGYCCANWGPGTQVTVSSTTTPAPRPPTPAPTIASQPLSLRPEACRPAAGGAVHTRGLDFACDIYIWAPLAGTCGVLLLSLVITLYCKRGRKKLLYIFKQPFMRPVQTTQEEDGCSCRFPEEEEGGCELRVKFSRSADAPAYKQGQNQLYNELNLGRREEYDVLDKRRGRDPEMGGKPRRKNPQEGLYNELQKDKMAEAYSEIGMKGERRRGKGHDGLYQGLSTATKDTYDALHMQALPPR
For B6, in experiment [2], the “% H9 cell lysis E:T = 5:1 (LDH assay, CAR T cells)” value was determined as 84% and the “% MJ cell lysis E:T = 1:1 (LDH assay, CAR T cells)” value amounted to 64.3%.

B7: AS57659bbz CAR (other)
chain: DIQMTQSPSSLSASVGDRVTITCRASQSVSSAVAWYQQKPGKAPKLLIYSASSLYSGVPSRFSGSRSGTDFTLTISSLQPEDFATYYCQQPYYLITFGQGTKVEIKGGGGSGGGGSGGGGSEVQLVESGGGLVQPGGSLRLSCAASGFNIYSYYIHWVRQAPGKGLEWVASIYSSYSSTYYADSVKGRFTISADTSKNTAYLQMNSLRAEDTAVYYCARSWFSYPGLDYWGQGTLVTVSSTTTPAPRPPTPAPTIASQPLSLRPEACRPAAGGAVHTRGLDFACDIYIWAPLAGTCGVLLLSLVITLYCKRGRKKLLYIFKQPFMRPVQTTQEEDGCSCRFPEEEEGGCELRVKFSRSADAPAYKQGQNQLYNELNLGRREEYDVLDKRRGRDPEMGGKPRRKNPQEGLYNELQKDKMAEAYSEIGMKGERRRGKGHDGLYQGLSTATKDTYDALHMQALPPR
For the molecule B7, in experiment [1], the “% MJ cell lysis E:T = 0.5:1 (LDH assay, CAR T cells)” value is 42%.

B8: 5F11bbz CAR (other)
chain: DIQMTQSPTSLSASVGDRVTITCRASQGISSWLTWYQQKPEKAPKSLIYAASSLQSGVPSRFSGSGSGTDFTLTISSLQPEDFATYYCQQYDSYPITFGQGTRLEIKGSTSGSGKPGSGEGSTKGQVQLQQWGAGLLKPSETLSLTCAVYGGSFSAYYWSWIRQPPGKGLEWIGDINHGGGTNYNPSLKSRVTISVDTSKNQFSLKLNSVTAADTAVYYCASLTAYWGQGSLVTVSSTTTPAPRPPTPAPTIASQPLSLRPEACRPAAGGAVHTRGLDFACDIYIWAPLAGTCGVLLLSLVITLYCKRGRKKLLYIFKQPFMRPVQTTQEEDGCSCRFPEEEEGGCELRVKFSRSADAPAYKQGQNQLYNELNLGRREEYDVLDKRRGRDPEMGGKPRRKNPQEGLYNELQKDKMAEAYSEIGMKGERRRGKGHDGLYQGLSTATKDTYDALHMQALPPR
For B8, in experiment [3], the “% H9 cell lysis E:T = 2:1 (LDH assay, CAR T cells)” value was 45% and the “% MJ cell lysis E:T = 1:1 (LDH assay, CAR T cells)” value was 41%. The “% MJ cell lysis E:T = 0.5:1 (LDH assay, CAR T cells)” value in experiment [1] came out at 29.9%. Moreover, in experiment [4], the “% H9 cell lysis E:T = 2:1 (LDH assay, CAR T cells)” value came to 45% and the “% MJ cell lysis E:T = 1:1 (LDH assay, CAR T cells)” value came out at 41%. In addition, in experiment [5], the “% H9 cell lysis E:T = 0.2:1 (FACS method, CAR T cells)” value is 16% and the “% MJ cell lysis E:T = 0.2:1 (FACS method, CAR T cells)” value stood at 2.3%.

B9: AS57911bbz CAR (other)
chain: DIQMTQSPSSLSASVGDRVTITCRASQSVSSAVAWYQQKPGKAPKLLIYSASSLYSGVPSRFSGSRSGTDFTLTISSLQPEDFATYYCQQSHALITFGQGTKVEIKGGGGSGGGGSGGGGSEVQLVESGGGLVQPGGSLRLSCAASGFNISSSYIHWVRQAPGKGLEWVAYISSYYSYTYYADSVKGRFTISADTSKNTAYLQMNSLRAEDTAVYYCARGYPYGMDYWGQGTLVTVSSTTTPAPRPPTPAPTIASQPLSLRPEACRPAAGGAVHTRGLDFACDIYIWAPLAGTCGVLLLSLVITLYCKRGRKKLLYIFKQPFMRPVQTTQEEDGCSCRFPEEEEGGCELRVKFSRSADAPAYKQGQNQLYNELNLGRREEYDVLDKRRGRDPEMGGKPRRKNPQEGLYNELQKDKMAEAYSEIGMKGERRRGKGHDGLYQGLSTATKDTYDALHMQALPPR
As to B9, in experiment [1], the “% MJ cell lysis E:T = 0.5:1 (LDH assay, CAR T cells)” value is 43.9%.

B10: AS48463bbz CAR (other)
chain: QVHLMESGGGSVQAGETLRLSCTASGFTFANSDMGWYRQAPGNACELVSIISSHGGTTYYVDSVKGRFTISRHNAENTVYLRMTSLKPEDTALYYCVADPRSNCRGGYCCGYWGPGTQVTVSSTTTPAPRPPTPAPTIASQPLSLRPEACRPAAGGAVHTRGLDFACDIYIWAPLAGTCGVLLLSLVITLYCKRGRKKLLYIFKQPFMRPVQTTQEEDGCSCRFPEEEEGGCELRVKFSRSADAPAYKQGQNQLYNELNLGRREEYDVLDKRRGRDPEMGGKPRRKNPQEGLYNELQKDKMAEAYSEIGMKGERRRGKGHDGLYQGLSTATKDTYDALHMQALPPR
Regarding B10, the “% MJ cell lysis E:T = 0.5:1 (LDH assay, CAR T cells)” value in experiment [1] was 60.8%.

The values above are taken from patent US20220144960A1 (NANJING LEGEND BIOTECH, published 2022).
